Test results as given in patent US7223537B2, “Detection of molecular interactions by reporter subunit complementation” (The Board of Trustees of the Leland Stanford Junior …, priority 1997, dated 2007).

Tests used:
human EGF receptor [1] = tested on: T1, human EGF receptor; assay: EGF receptor dimerization monitored by β-gal complementation (FACS) in C2F3 mouse myoblasts expressing chimeric receptors; type: cell-based
T1 construct: transmembrane domains of the human EGF receptor (amino acids 1–655) was amplified; expressed in transfected cells; host or cells: C2F3 mouse myoblasts, retrovirally transduced (pWZL-Δα-neo, pWZL-Δω-hygro), selected clone
T1 sequence (Q01279 25-1210): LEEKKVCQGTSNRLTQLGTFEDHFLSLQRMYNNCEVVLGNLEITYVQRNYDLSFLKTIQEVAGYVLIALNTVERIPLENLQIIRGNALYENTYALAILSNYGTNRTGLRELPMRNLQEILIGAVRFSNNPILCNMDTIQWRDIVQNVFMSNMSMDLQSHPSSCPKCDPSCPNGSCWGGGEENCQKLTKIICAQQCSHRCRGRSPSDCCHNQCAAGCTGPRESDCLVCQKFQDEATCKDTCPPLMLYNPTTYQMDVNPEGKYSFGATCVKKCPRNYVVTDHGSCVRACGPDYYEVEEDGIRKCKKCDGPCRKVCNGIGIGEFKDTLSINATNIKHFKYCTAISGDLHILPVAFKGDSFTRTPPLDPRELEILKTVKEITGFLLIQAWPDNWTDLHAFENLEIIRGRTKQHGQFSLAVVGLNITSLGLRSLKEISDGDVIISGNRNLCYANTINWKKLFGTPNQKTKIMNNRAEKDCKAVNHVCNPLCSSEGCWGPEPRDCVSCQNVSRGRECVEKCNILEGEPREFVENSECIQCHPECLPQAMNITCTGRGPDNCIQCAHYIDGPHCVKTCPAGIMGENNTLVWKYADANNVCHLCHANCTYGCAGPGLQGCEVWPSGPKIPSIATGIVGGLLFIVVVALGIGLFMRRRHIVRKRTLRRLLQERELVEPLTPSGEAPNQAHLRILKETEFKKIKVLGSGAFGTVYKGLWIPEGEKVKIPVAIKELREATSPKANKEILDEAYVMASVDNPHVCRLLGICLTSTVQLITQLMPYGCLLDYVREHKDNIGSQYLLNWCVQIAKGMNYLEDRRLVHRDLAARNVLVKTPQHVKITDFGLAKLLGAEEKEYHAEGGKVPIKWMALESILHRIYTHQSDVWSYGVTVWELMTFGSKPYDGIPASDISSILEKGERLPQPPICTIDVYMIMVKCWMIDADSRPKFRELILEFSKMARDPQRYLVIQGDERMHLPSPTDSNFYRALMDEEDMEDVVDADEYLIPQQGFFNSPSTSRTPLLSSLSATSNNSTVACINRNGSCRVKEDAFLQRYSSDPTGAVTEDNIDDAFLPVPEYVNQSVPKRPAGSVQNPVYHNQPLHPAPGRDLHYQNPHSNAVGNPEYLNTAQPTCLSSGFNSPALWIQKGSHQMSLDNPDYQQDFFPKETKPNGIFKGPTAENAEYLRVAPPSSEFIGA
Excerpt: (§1) Construction of chimeric receptors. The weakly complementing Δα and Δω deletion mutants of β-gal were each linked to a polypeptide sequence containing the extracellular and transmembrane domains of the human EGF receptor to form chimeric receptor molecules. The chimeric receptors lacked the cytoplasmic domain, and attendant tyrosine kinase activity, of the native receptor. The procedure was as follows. The sequence coding for the extracellular and transmembrane domains of the human EGF receptor (amino acids 1–655) was amplified by polymerase chain reaction (PCR) using primers that incorporated an NcoI site at the 5′ end and an XhoI site at the 3′ end of the PCR product. Although this fragment retains threonine 654, which is a site of protein kinase C (PKC) phosphorylation, arginines 656 and 657 are removed, destroying the consensus PKC recognition sequence. The amino acid sequence beginning with threonine 654 is thr-leu-glu-ser-met, with the met residue being the beginning of the β-gal sequence. The glu and ser codons are generated by the junction sequence and are not native to either EGF or β-gal.
(§2) DNAs encoding the chimeric receptors were inserted into a retroviral vector also encoding a selectable marker. For the construct containing the EGF receptor-Δα fusion, the selectable marker was the neo gene, encoding G418 resistance; while the EGF receptor-Δω fusion specified hygromycin resistance (FIG. 1B). Accordingly, the EGF receptor PCR product was digested and cloned into the NcoI and XhoI sites of the pWZL-Δα and pWZL-Δω vectors. The pWZL-Δα-neo and pWZL-Δω-hygro plasmids were constructed by cloning the lacZ Δα and Δω deletion mutants into pWZL-neo and pWZL-hygro, respectively. Mohler et al., supra; and Rossi et al. (1997) Proc. Natl. Acad. Sci. USA 94:8405–8410. Plasmids were transfected into φNX cells using Lipofectamine (Life Technologies), and virus-containing supernatant was harvested 48–72 hours later. C2F3 mouse myoblasts (Rastinejad et al. (1993) Cell 72:903–917) maintained in DME with 20% fetal bovine serum (FBS) in 10% CO2, were infected by overnight incubation in the viral supernatant. Cells containing both constructs were selected in 1 mg/ml G418 plus 1 mg/ml hygromycin, and were maintained in 400 μg/ml of each antibiotic.
(§3) EGF treatment and FACS analysis Cells were treated with mouse salivary gland EGF (Sigma) at 100 ng/ml and in some experiments were treated with tyrphostin AG1478 (Calbiochem) at 100 nM. Following all treatments, cells were rinsed with phosphate buffered saline (PBS), trypsinized, and resuspended in PBS+5% FBS. Fluorescein di-β-D-galactopyranoside (FDG; Molecular Probes) was loaded into the cells by hypotonic shock as described. Fiering et al. (1991) Cytometry 12:291–301 and Nolan et al. (1988) Proc. Natl. Acad. Sci. USA 85:2603–2607. Cells were kept on ice until analysis on the cell sorter, which was conducted 1 to 2 hours after trypsinization.
(§4) The chimeric receptor was detected by immunofluorescence using a monoclonal mouse anti-human EGF receptor antibody diluted 1:100 (clone EGFR1, Dako) and either phycoerythrin-labeled horse anti-mouse IgG (Vector) or fluorescein-labeled goat anti-mouse IgG (Cappel) diluted 1:100. Cells were trypsinized and stained in PBS+5% FBS. For each sample, FACS analysis data was collected for 5000 cells. Cells were cloned on a Becton-Dickinson FACS Vantage and analyzed on a Becton-Dickinson FACS can at the Stanford Shared FACS Facility. Data analysis was facilitated by FlowJo software (Tree Star, Inc.). Data shown here as FACS profiles were adjusted for autofluorescence using autofluorescence compensation. Alberti et al. (1987) Cytometry 8:114–119. Mean fluorescence data were adjusted for autofluorescence and for endogenous mammalian β-gal activity by subtracting the mean fluorescence of untransduced cells loaded with FDG substrate.

human EGF receptor [2] = target: T2, human EGF receptor (Homo sapiens, UniProt P00533); assay: as above; type: cell-based
T2 construct: transmembrane domains of the human EGF receptor (amino acids 1–655) was amplified; expressed in transfected cells; host or cells: C2F3 mouse myoblasts, retrovirally transduced (pWZL-Δα-neo, pWZL-Δω-hygro), selected clone
Excerpt: as §1, §2, §3, §4

## COc1cc2ncnc(Nc3cccc(Cl)c3)c2cc1OC [tyrphostin AG1478, reference compound]
Human EGF receptor [1]; 100 nM tyrphostin AG1478 + 100 ng/ml EGF, treatment times of up to 6 hours, FIG. 9B
  β-gal activity of cells given tyrphostin and EGF versus EGF alone: greater β-gal activity than cells that received EGF alone
Human EGF receptor [1]; by 8 hours of treatment
  difference in EGF receptor dimerization between EGF and EGF+tyrphostin treated cells: no difference
Human EGF receptor [1]; tyrphostin every four hours
  effect of repeated administration of tyrphostin on the increased β-gal activity: did not further prolong the increased β-gal activity

## EGF: mouse salivary gland EGF (Sigma)
Human EGF receptor [2]; 100 ng/ml EGF for 0 to 24 hours, FIG. 8
  time at which dimerization peaked: 2 to 4 h
Human EGF receptor [2]; 100 ng/ml EGF for two hours, FIG. 7E
  increase in β-gal activity (chimeric receptor dimerization) in selected clone: several-fold increase
Human EGF receptor [2]; 100 ng/ml EGF, mean fluorescence, FIG. 7F
  shortest EGF treatment at which dimerization could be detected: one
Human EGF receptor [2]; 100 ng/ml EGF, over the period that dimerization decreased, FIG. 8
  amount of chimeric receptor on the cell surface (immunofluorescence, FACS): remained essentially constant
Human EGF receptor [2]; during the decline in dimerization, EGF still present
  response (dimerization) to a second EGF treatment: minimal

## TGF-α: EGF-like growth factor that binds and activates the EGF receptor
Human EGF receptor [2]
  dimerization of chimeric EGF receptor following stimulation with EGF-like growth factor: Dimerization was also observed

## betacellulin: EGF-like growth factor that binds and activates the EGF receptor
Human EGF receptor [2]
  dimerization of chimeric EGF receptor following stimulation with EGF-like growth factor: Dimerization was also observed

## heparin-binding EGF-like growth factor: EGF-like growth factor that binds and activates the EGF receptor
Human EGF receptor [2]
  dimerization of chimeric EGF receptor following stimulation with EGF-like growth factor: Dimerization was also observed
